According to patent US20180125921A1, “USE OF QBP1 PEPTIDE FOR THE INHIBITION OF MEMORY CONSOLIDATION” (CONSEJO SUPERIOR DE INVESTIGACIONES CIENTÍFICAS, priority 2015, published 2018):

Target: Orb2A PLD (Drosophila), Q9VSR3
Test: cell-based or functional assay

Q: With Ac-WKWWPGIF-NH2 [minimal active core of QBP1 (QBP1 fragment), Ac-WKWWPGIF-NH2] as the binder, how does the formation of M (mechanostable) conformers, AFM-SMFS read?
A: 16.1%
